{"source": "paper PMC10066265", "about": "“Inhibitor-3 inhibits Protein Phosphatase 1 via a metal binding dynamic protein–protein interaction” (Nature Communications, 2023)", "binders": {"B1": {"name": "I3_(27-68) (I3 PP1 interaction domain) (domain or fragment, human, UniProt O60927 27-68, looked up)", "chain": "SLTIKLRKRKPEKKVEWTSDTVDNEHMGRRSSKCCCIYEKPR", "notes": "PPP1R11), human, residues 27-68; source: E. coli BL21 (DE3), purified (Ni-NTA, TEV cleavage, heat, SEC); not shown: His6, N-terminal, cleaved; MBP, N-terminal, cleaved"}}, "conditions_in_all_cases": "both partners purified", "key": {"PP1α_(7-330) [1]": {"biological_target": "T1, PP1α_(7-330) (UniProt P62136 7-330)", "T1 construct": "Protein Phosphatase 1 alpha (PP1α), residues 7-330; His6-PP1 was captured on the Ni-NTA sensor chip as the SPR ligand; Mn2+ in all buffers; also called Protein Phosphatase 1; His6-PP1; source: E. coli, purified (Ni-NTA, SEC)", "T1 sequence (P62136 7-330)": "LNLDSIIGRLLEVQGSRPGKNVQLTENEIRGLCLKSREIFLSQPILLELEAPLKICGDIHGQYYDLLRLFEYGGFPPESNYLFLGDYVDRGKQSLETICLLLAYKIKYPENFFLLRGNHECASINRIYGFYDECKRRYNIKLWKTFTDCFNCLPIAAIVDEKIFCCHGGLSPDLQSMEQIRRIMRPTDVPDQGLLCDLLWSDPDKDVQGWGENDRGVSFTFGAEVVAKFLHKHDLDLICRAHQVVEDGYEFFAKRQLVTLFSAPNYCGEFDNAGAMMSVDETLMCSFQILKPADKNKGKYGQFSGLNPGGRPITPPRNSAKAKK", "experiment": "SPR; as a1 but pH 7.5; His6-PP1 captured on Ni-NTA chip, I3_(27-68) injected; two state model"}, "PP1α_(7-330) [2]": {"biological_target": "T1, PP1α_(7-330)", "experiment": "SPR; His6-PP1 captured on Ni-NTA chip (NiHC200M), I3 variants injected; 25 °C; 20 mM Tris pH 8.0, 500 mM NaCl, 1 mM MnCl2, 0.5 mM TCEP, 0.05% Tween-20; one-to-one one state or one-to-one two state model (TraceDrawer)"}, "PP1α_(7-330) H248N": {"biological_target": "T2, PP1α_(7-330) H248N (UniProt P62136 7-330, H248N)", "T2 construct": "Protein Phosphatase 1 alpha (PP1α), residues 7-330, H248N; His6-tagged form captured on the Ni-NTA sensor chip; also called PP1 H248N; source: E. coli, purified (Ni-NTA, SEC)", "T2 sequence (P62136 7-330 H248N)": "as the sequence (P62136 7-330) above, with H242N counted along it", "experiment": "SPR; His6-PP1 captured on Ni-NTA chip (NiHC200M), I3 variants injected; 25 °C; 20 mM Tris pH 8.0, 500 mM NaCl, 1 mM MnCl2, 0.5 mM TCEP, 0.05% Tween-20; one-to-one one state or one-to-one two state model (TraceDrawer)"}, "PP1α_(7-330) H66K": {"biological_target": "T3, PP1α_(7-330) H66K (UniProt P62136 7-330, H66K)", "T3 construct": "Protein Phosphatase 1 alpha (PP1α), residues 7-330, H66K (lacks the M1 metal); His6-tagged form captured on the Ni-NTA sensor chip; also called PP1 H66K; source: E. coli, purified (Ni-NTA, SEC)", "T3 sequence (P62136 7-330 H66K)": "as the sequence (P62136 7-330) above, with H60K counted along it", "experiment": "SPR; His6-PP1 captured on Ni-NTA chip (NiHC200M), I3 variants injected; 25 °C; 20 mM Tris pH 8.0, 500 mM NaCl, 1 mM MnCl2, 0.5 mM TCEP, 0.05% Tween-20; one-to-one one state or one-to-one two state model (TraceDrawer)"}, "PP1α_(7-330) C273S": {"biological_target": "T4, PP1α_(7-330) C273S (UniProt P62136 7-330, C273S)", "T4 construct": "Protein Phosphatase 1 alpha (PP1α), residues 7-330, C273S; His6-tagged form captured on the Ni-NTA sensor chip; also called PP1 C273S; source: E. coli, purified (Ni-NTA, SEC)", "T4 sequence (P62136 7-330 C273S)": "as the sequence (P62136 7-330) above, with C267S counted along it", "experiment": "SPR; His6-PP1 captured on Ni-NTA chip (NiHC200M), I3 variants injected; 25 °C; 20 mM Tris pH 8.0, 500 mM NaCl, 1 mM MnCl2, 0.5 mM TCEP, 0.05% Tween-20; one-to-one one state or one-to-one two state model (TraceDrawer)"}, "PP1α_(7-330) [3]": {"biological_target": "T1, PP1α_(7-330)", "experiment": "SPR; as a1 but pH 7.0; His6-PP1 captured on Ni-NTA chip, I3_(27-68) injected; two state model"}, "PP1α_(7-330) [4]": {"biological_target": "T1, PP1α_(7-330)", "experiment": "SPR; as a1 but pH 6.5; His6-PP1 captured on Ni-NTA chip, I3_(27-68) injected; two state model"}}, "note": "Where “and” joins values, the source holds several entries; their conditions need not be identical. Equal values may be shown once."}
{"binder": "B1", "values": [{"measurement": "Kd", "setting": "PP1α_(7-330) [1]", "result": "8.32 nM and 9.2 nM and 9.58 nM"}, {"measurement": "Kd", "setting": "PP1α_(7-330) [2]", "result": "9.87 nM and 7.88 nM and 10.5 nM and 9.04 nM"}, {"measurement": "Kd", "setting": "PP1α_(7-330) H248N", "result": "7.74 nM and 5.38 nM"}, {"measurement": "Kd", "setting": "PP1α_(7-330) H66K", "result": "6.66 nM and 5.65 nM and 5.52 nM"}, {"measurement": "Kd", "setting": "PP1α_(7-330) C273S", "result": "16.9 nM and 15.8 nM and 15.6 nM"}, {"measurement": "Kd", "setting": "PP1α_(7-330) [3]", "result": "14.9 nM and 16.2 nM and 17.1 nM"}, {"measurement": "Kd", "setting": "PP1α_(7-330) [4]", "result": "16.2 nM and 17.7 nM and 17.1 nM"}]}
